In the RNAGym collection of RNA variant scans (doi:10.7554/elife.80360) one finds self-cleavage data, which are given here for 167 variants.

Sequences and labels used below:
B1: CPEB3 Ribozyme (parent)
chain: GGGGGCCACAGCAGAAGCGUUCACGUCGCGGCCCCUGUCAGAUUCUGGUGAAUCUGCGAAUUCUGCUGU

The variants in this data set derive from B1. The experiment in a line: self-cleavage, relative activity (ratio to wild type); higher = more cleavage; co-transcriptional.
Regarding G14U G31U, the self-cleavage was determined as 0.164. The same measure for G14U G31C: 0.163.

Turning to G14A G25A, the self-cleavage came out at 0.156.

As for G14A G25U, the self-cleavage stood at 0.0915. Turning to G14A G25C, the self-cleavage was 0.105. On to A15C C34A, for which the self-cleavage came out at 0.394. Regarding G14U G56U, the self-cleavage turned out to be 0.309. Then G14U G56C, with 0.292. Consider G14C C34G, for which the self-cleavage came to 0.236.

Consider G14C C34A, for which the self-cleavage was 0.406. Consider G14U U21A, for which the self-cleavage is 0.733. Then G14U U21C, with 0.379; and G14U C45A, with 0.665; and G14U C45G, with 0.62. For the variant G14U C45U, the self-cleavage was 0.721.

Consider G14A U61A, for which the self-cleavage came out at 0.357. For the variant G14C U36G, the self-cleavage amounted to 0.19. G14C U36C: the self-cleavage worked out at 0.37. With G14C U36A, the self-cleavage worked out at 0.109. On to G14U C27U, for which the self-cleavage is 0.15.

Regarding G14C U55C, the self-cleavage is 0.271. As to G14C U55A, the self-cleavage worked out at 0.22. As for G14C U69C, the self-cleavage was found to be 0.968. Turning to G14C U69G, the self-cleavage is 0.726. On to G14C G25A, for which the self-cleavage is 0.142. The same measure for G14C G25C: 0.167. As for G14C G25U, the self-cleavage was determined as 0.0786. As for A15C C24U, the self-cleavage was 0.27. As to A15C C24A, the self-cleavage came to 0.273. Take G14C C39G: the self-cleavage was found to be 0.248. Take G14C C39A: the self-cleavage stood at 0.225. For the variant G14C C39U, the self-cleavage is 0.286. For the variant G14C G50U, the self-cleavage stood at 0.618. With G14C G50A, the self-cleavage was determined as 0.613. With G14C G50C, the self-cleavage turned out to be 0.405.

Consider G14C A60G, for which the self-cleavage is 0.265. G14A C45U: the self-cleavage came out at 0.778. In the case of G14A C45A, the self-cleavage was determined as 0.612.

For the variant G14A C45G, the self-cleavage was determined as 0.638. Take G14A U62A: the self-cleavage came out at 0.554. G14A U62G: the self-cleavage was 0.605. Take G14A U62C: the self-cleavage was found to be 0.338. For G14C C24U, the self-cleavage is 0.175. As for G14U U43C, the self-cleavage came to 0.472.

For G14U U43G, the self-cleavage was determined as 0.278. Consider G14U A59U, for which the self-cleavage came to 0.365. A15C A16C: the self-cleavage was determined as 0.111. Consider A15C A16G, for which the self-cleavage is 0.142. As to A15C A16U, the self-cleavage stood at 0.49. Then G14C A16U, with 0.28; and G14C A16G, with 0.353; and G14C A16C, with 0.143. G14U G25A: the self-cleavage stood at 0.141.

Turning to G14U G25C, the self-cleavage was 0.204. For G14U G25U, the self-cleavage stood at 0.124. Take G14A G31A: the self-cleavage turned out to be 0.249. Turning to G14A G31C, the self-cleavage is 0.183. Regarding G14C G48A, the self-cleavage was found to be 0.703. On to G14C G48C, for which the self-cleavage was 0.677.

For A15C C18U, the self-cleavage is 0.296. A15C C18G: the self-cleavage came to 0.0508.

Regarding A15C C18A, the self-cleavage turned out to be 0.174. As for G14A C57G, the self-cleavage stood at 0.258.

As for G14A C57A, the self-cleavage is 0.264. As to G14C U62G, the self-cleavage was 0.368. For G14C U62C, the self-cleavage was found to be 0.352. In the case of G14C U62A, the self-cleavage turned out to be 0.394. For G14U A16U, the self-cleavage came to 0.363. In the case of G14U A16C, the self-cleavage is 0.123. As to G14U C63G, the self-cleavage was 0.994. As to G14U C63U, the self-cleavage is 0.893. Then G14U C63A, with 0.994. As for G14U G17U, the self-cleavage was 0.161. Consider G14U G17A, for which the self-cleavage turned out to be 0.145. The same measure for G14C C35G: 0.191. Regarding G14C C35U, the self-cleavage was 0.464.

Turning to G14C A23U, the self-cleavage worked out at 0.761.

On to G14C A23C, for which the self-cleavage was 0.555.

As for G14U G68U, the self-cleavage is 0.816.

Take G14C C29G: the self-cleavage was determined as 0.172. The same measure for G14C C29A: 0.0734; for G14C C29U: 0.163; for G14U A60G: 0.4.

In the case of G14C C57A, the self-cleavage stood at 0.325. On to G14C C57U, for which the self-cleavage was determined as 0.28. In the case of G14U U26A, the self-cleavage came to 0.555. On to G14U U26G, for which the self-cleavage was 0.559. Turning to A15C C33G, the self-cleavage was 0.259. In the case of A15C C33A, the self-cleavage turned out to be 0.32. A15C A60C: the self-cleavage amounted to 0.308. A15C A60U: the self-cleavage came to 0.377. On to A15C A60G, for which the self-cleavage came out at 0.292. Then G14U U53G, with 0.439; and G14U U53C, with 0.33. Then G14U U53A, with 0.356.

Regarding G14C A15C, the self-cleavage came to 0.166. On to G14A U49C, for which the self-cleavage turned out to be 0.646. As for A15C, the self-cleavage was 0.923.

Regarding G14C A40G, the self-cleavage came out at 0.324. Consider G14C A40C, for which the self-cleavage turned out to be 0.183.

Regarding A15C C29U, the self-cleavage came out at 0.122.

As to A15C C29G, the self-cleavage turned out to be 0.163. The same measure for G14A U26A: 0.346; for G14U G50A: 0.812. Then G14U G50U, with 0.815. G14U G50C: the self-cleavage is 0.616. G14U G28U: the self-cleavage was determined as 0.164. As for G14U A23G, the self-cleavage came out at 0.452. For G14U A23U, the self-cleavage was found to be 0.986.

Consider G14U A23C, for which the self-cleavage came to 0.7. In the case of G14U U44C, the self-cleavage amounted to 0.325. As to G14U C22A, the self-cleavage is 0.15. For the variant G14U C22U, the self-cleavage amounted to 0.15. On to G14C G28A, for which the self-cleavage was 0.154.

Regarding G14C G28C, the self-cleavage stood at 0.154. In the case of G14C G28U, the self-cleavage was 0.148.

In the case of G14C C66U, the self-cleavage was found to be 0.358. Regarding G14C C66A, the self-cleavage was determined as 0.244. On to G14C U53G, for which the self-cleavage was found to be 0.397. With G14C G56U, the self-cleavage came to 0.236. With G14C G56C, the self-cleavage came to 0.24. On to G14C A52G, for which the self-cleavage was determined as 0.57.

Take G14C C54G: the self-cleavage amounted to 0.251. On to G14C C54U, for which the self-cleavage is 0.544. For G14A C63A, the self-cleavage is 0.829. With A15C C27U, the self-cleavage stood at 0.119. For the variant A15C C27G, the self-cleavage came out at 0.123.

Consider G14A G19A, for which the self-cleavage amounted to 0.16.

In the case of G14A G19C, the self-cleavage is 0.106. Then G14A G30A, with 0.235; and G14A U36A, with 0.0973; and G14A U36C, with 0.442. For G14A G58A, the self-cleavage amounted to 0.703. Consider G14A G58C, for which the self-cleavage is 0.674. Consider G14A G58U, for which the self-cleavage turned out to be 0.895. Consider G14C G58A, for which the self-cleavage worked out at 0.505. G14C U64A: the self-cleavage is 0.432. For the variant G14C U64G, the self-cleavage turned out to be 0.546. G14C U64C: the self-cleavage is 0.283.

Regarding A15C A40G, the self-cleavage was found to be 0.626. For A15C A40C, the self-cleavage stood at 0.137. Take G14A U64G: the self-cleavage was 0.576.

Turning to G14A U64C, the self-cleavage worked out at 0.346. Consider G14C U44A, for which the self-cleavage came out at 0.392.

For the variant G14C U44G, the self-cleavage amounted to 0.39.

Turning to G14U G30U, the self-cleavage was 0.155. G14U G30C: the self-cleavage was determined as 0.187.

Turning to G14U G30A, the self-cleavage was 0.288. The same measure for G14C C32A: 0.25. Regarding G14C C32G, the self-cleavage is 0.193. Regarding G14A C66U, the self-cleavage is 0.375. Then G14A C66G, with 0.287; and G14A C66A, with 0.262. In the case of G14U G41C, the self-cleavage is 0.245. Turning to G14C U49A, the self-cleavage stood at 0.712.

As to G14C U49G, the self-cleavage is 0.689.

For G14U C24G, the self-cleavage is 0.109. The same measure for G14U C24U: 0.137; for G14C G47A: 0.729; for G14C G47U: 0.725.

As for G14U C34A, the self-cleavage amounted to 0.526. Consider G14U C34U, for which the self-cleavage worked out at 0.833. As to G14U C34G, the self-cleavage was found to be 0.347.

Regarding G14A U38A, the self-cleavage was determined as 0.478. For A15C C32G, the self-cleavage is 0.153. For A15C C32A, the self-cleavage stood at 0.302.

In the case of G14C U43G, the self-cleavage was found to be 0.246.
